The target of assay [1] is T1, LAMP2 (endogenous) (UniProt P13473 29-410, limits assumed, glycosylated (binding told as glycan-dependent)).
T1 construct: Integral lysosomal membrane glycoprotein
The assay is described as follows: co-IP, anti-GFP IP of GFP-tagged galectins, blot for endogenous LAMP2 (FIG. S2B). The source says: (B) Co-IP analysis of galectins and LAMP2. Cells expressing GFP-tagged galectins were subjected to anti-GFP immunoprecipitation followed by immunoblotting for endogenous LAMP2. (C) Schematic, strategy for stable HeLa Flp-In Gal9^Tet-ON which stably express mCherry-Gal9 induced by tetracycline. HeLa Flp-In Gal9^Tet-ON cells treated with LLOMe in a time dependent manner quantified by HCM. (D) HCM visualization of mCherry-Gal9 localization relative to LAMP2-positive lysosomes. Cells as in (C) were treated with LLOMe for 30 min in full medium and immunostained for endogenous LAMP2 and mCherry Gal9. (E) Immunofluorescence confocal microscopy visualization of mCherry-Gal9 localization relative to LAMP2-positive lysosomes. Cells as in (D) immunostained for endogenous LAMP2 and mCherry Gal9. Scale bar, 10 μM. (F) HCM visualization of mCherry-Gal9 localization relative to endogenous Ub puncta. Cells as in (C) were treated with LLOMe for 30 min in full medium and immunostained for endogenous Ub and mCherry Gal9. (G) Immunofluorescence confocal microscopy visualization of mcherry-Gal9 localization relative to endogenous Ub and LAMP1-positive lysosomes. Cells as in (C) were treated with LLOMe for 30 min in full medium and immunostained for endogenous Ub, LAMP1 and mCherry Gal9. Scale bar, 10 μM. […]

Another assay deals with T2, USP9X (endogenous) (UniProt Q93008 1-2554, limits assumed).
T2 construct: also called deubiquitinating enzyme USP9X; DUB USP9X
Kind of assay: co-IP, anti-FLAG IP, blot for endogenous USP9X, HEK293T (FIG. 3C).

The target in assay [2] is T1, LAMP2 (endogenous). The assay is described as follows: co-IP, anti-FLAG IP, blot for endogenous LAMP2, HEK293T, 1 mM LLOMe 30 min (FIG. 2B). As to the method: (A) APEX2 proximity biotinylation analysis. […] Biotinylated proteins were then affinity-isolated on streptavidin beads and analyzed by immunoblotting in response to LLOMe. (B) Co-immunoprecipitation (Co-IP) analysis of interactions between LAMP2 and Gal9. HEK293T cells expressing FLAG-tagged Gal9 or glycan recognition mutant forms of Gal9 (individual R65A, R239A, or double/combined R65A/R239A were treated with 1 mM LLOMe for 30 min in full medium. IP, anti-FLAG antibody; immunoblotting with endogenous LAMP2. (C) Immunofluorescence confocal microscopy visualization of Gal9 puncta in Hula cells transfected with FLAG-Gal9^WT or double mutant FLAG-Gal9^{R65A/R239A} and treated with lysosomal damaging agent (1 mM LLOMe) in full medium for 30 min. Cells were immunostained for FLAG-Gal9. Scale bar, 10 μM . (D) Analysis of FLAG-Gal9 puncta formation in Huh7 WT cells transfected with FLAG-Gal9 and respective mutants. Cells as in (C) were treated as in (C), measured by FICM (blue: nuclei, Hoechst 33342; green: anti-FLAG antibody, Alexa-488). White masks, computer algorithm-defined cell boundaries; green masks, computer-identified Gal9 puncta. (E) Immunofluorescence confocal microscopy visualization of Ub puncta in Gal9WT^Huh7 and Gal9KO^Huh7 cells complemented with FLAG-Gal9^WT or FLAG-Gal9^{R65A/R239A}. […] (F) Endogenous Ub puncta quantified by HCM. […]

Results on two molecules are retold here after patent US20210205286A1 (UNM RAINFOREST INNOVATIONS, published 2021).

T1 sequence (P13473 29-410 limits assumed): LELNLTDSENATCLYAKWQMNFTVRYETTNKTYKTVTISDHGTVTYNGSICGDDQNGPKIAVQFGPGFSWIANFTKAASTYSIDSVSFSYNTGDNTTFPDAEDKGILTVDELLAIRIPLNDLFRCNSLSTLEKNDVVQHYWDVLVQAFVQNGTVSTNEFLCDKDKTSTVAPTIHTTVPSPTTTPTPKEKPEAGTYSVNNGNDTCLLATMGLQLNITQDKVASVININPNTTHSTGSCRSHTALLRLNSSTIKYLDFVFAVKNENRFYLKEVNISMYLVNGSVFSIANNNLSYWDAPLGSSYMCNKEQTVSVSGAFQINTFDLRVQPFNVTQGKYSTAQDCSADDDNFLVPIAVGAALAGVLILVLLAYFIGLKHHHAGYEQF
T2 sequence (Q93008 whole entry): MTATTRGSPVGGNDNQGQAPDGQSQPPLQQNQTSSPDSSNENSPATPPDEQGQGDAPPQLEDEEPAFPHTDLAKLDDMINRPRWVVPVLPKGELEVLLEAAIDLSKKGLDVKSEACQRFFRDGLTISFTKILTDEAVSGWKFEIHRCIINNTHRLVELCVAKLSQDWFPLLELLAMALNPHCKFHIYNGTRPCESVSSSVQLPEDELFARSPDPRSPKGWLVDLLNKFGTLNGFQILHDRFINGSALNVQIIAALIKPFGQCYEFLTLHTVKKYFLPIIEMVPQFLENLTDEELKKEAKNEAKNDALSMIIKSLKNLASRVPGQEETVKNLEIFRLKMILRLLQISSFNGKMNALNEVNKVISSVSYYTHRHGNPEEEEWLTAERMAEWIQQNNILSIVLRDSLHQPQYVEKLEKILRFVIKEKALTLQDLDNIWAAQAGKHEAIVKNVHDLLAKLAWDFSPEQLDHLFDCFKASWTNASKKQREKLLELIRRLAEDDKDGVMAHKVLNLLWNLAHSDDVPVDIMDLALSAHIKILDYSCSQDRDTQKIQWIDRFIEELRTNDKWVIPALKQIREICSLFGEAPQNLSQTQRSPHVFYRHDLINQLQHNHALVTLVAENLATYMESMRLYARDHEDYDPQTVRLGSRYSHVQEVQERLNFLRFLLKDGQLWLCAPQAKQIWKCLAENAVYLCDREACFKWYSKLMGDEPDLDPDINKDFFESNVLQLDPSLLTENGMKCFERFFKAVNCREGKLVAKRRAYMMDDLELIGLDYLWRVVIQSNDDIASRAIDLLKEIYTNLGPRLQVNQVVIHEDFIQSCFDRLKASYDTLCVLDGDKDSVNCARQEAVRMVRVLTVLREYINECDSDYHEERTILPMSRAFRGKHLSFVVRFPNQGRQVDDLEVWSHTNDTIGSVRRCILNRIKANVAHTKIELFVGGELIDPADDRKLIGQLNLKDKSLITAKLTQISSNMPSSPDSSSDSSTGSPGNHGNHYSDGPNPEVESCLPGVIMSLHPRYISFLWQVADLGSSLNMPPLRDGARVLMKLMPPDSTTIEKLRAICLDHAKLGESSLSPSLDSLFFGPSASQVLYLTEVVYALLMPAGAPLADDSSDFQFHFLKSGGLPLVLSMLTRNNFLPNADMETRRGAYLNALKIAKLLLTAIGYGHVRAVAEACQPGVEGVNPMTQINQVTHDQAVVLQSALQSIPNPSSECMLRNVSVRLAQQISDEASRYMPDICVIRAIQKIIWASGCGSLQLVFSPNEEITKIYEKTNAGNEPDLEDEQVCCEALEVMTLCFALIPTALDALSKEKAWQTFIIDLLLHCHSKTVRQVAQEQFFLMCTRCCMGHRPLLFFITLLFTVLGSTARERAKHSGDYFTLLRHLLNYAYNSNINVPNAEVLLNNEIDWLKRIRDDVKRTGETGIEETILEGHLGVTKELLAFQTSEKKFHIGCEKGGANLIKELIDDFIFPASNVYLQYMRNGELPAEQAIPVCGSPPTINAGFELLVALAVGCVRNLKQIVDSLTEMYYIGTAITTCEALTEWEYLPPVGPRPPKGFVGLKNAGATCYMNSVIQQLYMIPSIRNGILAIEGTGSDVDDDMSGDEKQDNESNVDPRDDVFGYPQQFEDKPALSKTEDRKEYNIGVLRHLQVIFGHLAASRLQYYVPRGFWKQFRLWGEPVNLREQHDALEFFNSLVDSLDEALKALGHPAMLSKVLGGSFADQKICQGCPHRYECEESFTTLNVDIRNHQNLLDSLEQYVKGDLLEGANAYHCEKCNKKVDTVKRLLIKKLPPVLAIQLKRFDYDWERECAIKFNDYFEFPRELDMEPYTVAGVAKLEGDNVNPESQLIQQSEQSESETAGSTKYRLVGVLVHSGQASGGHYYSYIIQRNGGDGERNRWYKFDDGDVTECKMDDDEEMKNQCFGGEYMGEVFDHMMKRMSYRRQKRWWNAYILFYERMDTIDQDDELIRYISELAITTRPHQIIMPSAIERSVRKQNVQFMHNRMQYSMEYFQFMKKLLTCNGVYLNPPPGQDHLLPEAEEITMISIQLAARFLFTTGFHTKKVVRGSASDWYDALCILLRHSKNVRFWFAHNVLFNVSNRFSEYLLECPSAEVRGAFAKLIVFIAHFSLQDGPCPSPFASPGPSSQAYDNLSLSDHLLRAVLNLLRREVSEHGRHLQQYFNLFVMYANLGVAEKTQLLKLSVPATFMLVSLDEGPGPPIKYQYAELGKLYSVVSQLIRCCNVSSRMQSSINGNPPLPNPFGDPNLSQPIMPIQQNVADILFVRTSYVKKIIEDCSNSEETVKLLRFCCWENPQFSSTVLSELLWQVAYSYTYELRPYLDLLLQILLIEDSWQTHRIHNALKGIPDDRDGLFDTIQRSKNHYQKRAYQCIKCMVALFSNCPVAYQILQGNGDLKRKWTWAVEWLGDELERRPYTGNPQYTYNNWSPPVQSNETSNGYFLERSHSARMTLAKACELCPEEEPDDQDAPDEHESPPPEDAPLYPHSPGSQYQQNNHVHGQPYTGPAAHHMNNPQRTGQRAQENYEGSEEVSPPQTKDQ

B1: GFP-Gal8 (other, UniProt O00214 1-317, looked up)
chain: MMLSLNNLQNIIYNPVIPFVGTIPDQLDPGTLIVIRGHVPSDADRFQVDLQNGSSMKPRADVAFHFNPRFKRAGCIVCNTLINEKWGREEITYDTPFKREKSFEIVIMVLKDKFQVAVNGKHTLLYGHRIGPEKIDTLGIYGKVNIHSIGFSFSSDLQSTQASSLELTEISRENVPKSGTPQLRLPFAARLNTPMGPGRTVVVKGEVNANAKSFNVDLLAGKSKDIALHLNPRLNIKAFVRNSFLQESWGEEERNITSFPFSPGMYFEMIIYCDVREFKVAVNGVHSLEYKHRFKELSSIDTLEINGDIHLLEVRSW
notes: also called Galectin 8; GFP-tagged galectin; not shown: GFP
As for B1, the binding result with LAMP2 (endogenous) [1] is on record as “no binding”.

B2: FLAG-Gal9^R65A/R239A (other, UniProt O00182-2 1-323, looked up)
chain: MAFSGSQAPYLSPAVPFSGTIQGGLQDGLQITVNGTVLSSSGTRFAVNFQTGFSGNDIAFHFNPAFEDGGYVVCNTRQNGSWGPEERKTHMPFQKGMPFDLCFLVQSSDFKVMVNGILFVQYFHRVPFHRVDTISVNGSVQLSYISFQPPGVWPANPAPITQTVIHTVQSAPGQMFSTPAIPPMMYPHPAYPMPFITTILGGLYPSKSILLSGTVLPSAQRFHINLCSGNHIAFHLNPAFDENAVVRNTQIDNSWGSEERSLPRKMPFVRGQSFSVWILCEAHCLKVAVDGQHLFEYYHRLRNLPTINRLEVGGDIQLTHVQT
notes: also called double mutant; glycan recognition mutant; not shown: FLAG tag
In the case of B2, the binding result with USP9X (endogenous) was “binds”; with LAMP2 (endogenous) [2], “no binding”.
